Experimental data: the DeepSol protein solubility set

Test: soluble on expression in E. coli; label from the status in PepcDB or PDB records

**Q.** For “MGSDKIHHHHHHMSSSHSKNGNENETAKGITRISVSGYKSLYDECSIEIRPLTILAGANSSGKSSIIQPLLLMKQTLEATYDPGALLLNGANVKFTSAEQLISHLPGKERIQRFVIGIEIEHNQSVKNIFTKFPRQPIDLQEMIVEKNDSKVSLSTDTLPADVVNILPKQYLDFYKSIQDTDLKGKFFFIISRNRCFLEFELYDFINQKKLSSQSFLFNYITPDHTELFGRQIRKIIHIPGLRGNPERNYKTTAVGDAFPGTFDNYVASIIHRWQRPRDKRLQELNNALVSLGLTSKVQAKQLDDTQVELRVARLTRNSDNEKDMVSIADVGFGVSQTLPVLVALLVAEPGQLVYIEQPEIHLHPRAQVAMAEILANAAKRGVKIVVETHSDRLILATQSLVAEGNLSPDLVKLHWFTRQEDGITKINSADLDETGAFGDWPEDFGDVSLQLENRYLSAAEARLIQGTHGG”, which “soluble on expression in E. coli” value is on record?
**A.** not soluble

**Q.** For “MSSGNIHIHSMTGFANAAAECGSKRINLDLRAVNHRFLDIQIRMPDDLRYLESGIREKISSHIARGKVECKIQIQDAENGSQSLELNRDLVGQLAEINKDLRKHHDLAKLGVADILRFPGVLASQRENTEELAKSITELTEKALKDFTAARKREGKKLGEHLLQRLEAMEEIIDALSELFPTLLETHKEKIRARLVEAVGSIDNDRLQQEFALFIQKSDIDEEFSRLRTHIAEVRRIVTEHKGSSGKRLDFLMQELNREANTLGSKSIAAECTQASVELKVLIEQMREQVQNIE”, which “soluble on expression in E. coli” value is on record?
**A.** not soluble

**Q.** With “MDILILFYNTMWGFPLEFRKEDLPGGCVITTDRNLIAKADAVVFHLPDLPSVMEDEIDKREGQLWVGWSLECEENYSWTKDPEFRESFDLWMGYHQEDDIVYPYYGPDYGKMLVTARREKPYKKKACMFISSDMNRSHRQEYLKELMQYTDIDSYGKLYRNCELPVEDRGRDTLLSVIGDYQFVISFENAIGKDYVTEKFFNPLLAGTVPVYLGAPNIREFAPGENCFLDICTFDSPEGVAAFMNQCYDDEALYERFYAWRKRPLLLSFTKKLEQVRSNPLIRLCQKIHELKLGGILEHHHHHH” as the sequence, how does the “soluble on expression in E. coli” value read?
**A.** not soluble

**Q.** Which “soluble on expression in E. coli” value does the source give for “MARKTTVAKVGSKGPGSTKKTIQAVRPTVRTQGAVTRSQAALRGHMGITDSSTSTSSSRIPKEKLKKKASSRSRSRSRSKSTRRSRSKSTRSRSRSRSRSRSSTRGKKRAPKKAVTTKAARSISPVKVKKTEAIKSRGSSKTARRVSAAHK” here?
**A.** not soluble

**Q.** Which “soluble on expression in E. coli” value does the source give for “MGHHHHHHSHMEPEAFEICPYDPHHRIPLSRFQYHLASCRRKNPKKAKKMATCKYNACHVVPIKNLEEHEAVCVNRSAVEEEDTENPLKVSPPSSEQNDDTQQVSPCLPSPDIWNVDGANCQHVFVLKTFFPQKVVCENDTKESARETSPQKILRPGQ” here?
**A.** not soluble

**Q.** Which “soluble on expression in E. coli” value does the source give for “MKKDVTQKQTIIKFENGHLYTASDSCITEMPLTIKVNEFKFATIICSRNYLEELTLGFLASEGIFLKRNDLQSIHIDESKGFAHVKLTQSVGHHFEHPTKRVLASCCGKSRAFYFQNDAAIAKTSMTTILEHHHHHH” here?
**A.** not soluble

**Q.** Which “soluble on expression in E. coli” value does the source give for “MPDAQILSTHEHGVVVALGDIRTADSITTVVAGVGSANPTQWLNYVERAQHIQQATGGAAVAWLGYNAPANVAAAAAQTPAQQGASQLQKFQKELRTLNPKARLMVFGHSYGSVVAGHAVAHGLDADTFIVAGSPGVPPNPQLHSPNPRLISVLGSHDIIGLTGTNTVAAHGIDPSALSAQDAGFERWGVAGGHESYFTDKRLEHHHHHH” here?
**A.** not soluble

**Q.** With “MIRITQIKISIDEPVSKVKSLVLKKLRLQESDLLDYRIYKESIDARHRGEIDFIYTVDIKLKDEARILSKKIKNVSLAPELDYVNPVIGSKKMLHRPVVIGFGPAGMFAALLLAQNGYRPIVLERGQAVDERVKSIDKFWLEGKLNPKSNVQFGEGGAGTFSDGKLTSRVRDLRGRKVLEEFVQAGAPEDILYKAHPHVGTDLLRDIVKNIRKQIIELGGEVHFDAQVEEFLIEDEELQAVKLADGNIIKTNQAILAIGHSARDTFSELYDKGVTITAKPFAVGVRIEHPQSLINKAQYKEFADHPRLGAAEYRLTYKASSGRGVYTFCMCPGGLVVPAASEEGGLVTNGMSEHARDQKNANSGLLVQVFPEDFPTDHPLAGVEFQKELEHKAFELGGSNYQAPAQLVGDFLDGKASKAMGTVEPSYALGVKPTNLESLFPDYVTQSMREAIVGLDKKMHGFALSDAVMTGVESRSSSPVRINRDEENYQSVSTKGIYPSGEGAGFAGGIVSAGIDGLKCAESMIAEFAKLLMEDLEHHHHHH” as the sequence, how does the “soluble on expression in E. coli” value read?
**A.** soluble

**Q.** With “SEDEWQCTECKKFNSPSKRYCFRCWALRKDWYSDCSKLTH” as the sequence, how does the “soluble on expression in E. coli” value read?
**A.** soluble

**Q.** For “MGSDKIHHHHHHLAQLYFYYSSMNAGKSTSLLQSSYNYRERGMNTLVMTASIDDRYGKGKVASRIGIETEAQVFSSQDDLTQMISDVHQATPLSCVLVDECQFLSKEQVKQLTHVVDNIDIPVLCYGLRTDFQGELFSGSHYLLAWADKLVELKTICHCGRKANMVVRLDGDGKVMREGEQVAIGGNESYESVCRKHFREFIWD”, which “soluble on expression in E. coli” value is on record?
**A.** not soluble

**Q.** With “MRITQEQAEAIFCEDLKQFGKTVEQSVKVCLTDAQIAALVSFCYNVETQAFCKSTLLKKLNNGAYESVPAELQKWNKVGGKAIQGFVNRRAAEAGLWAKGSYVCFNTQRVETKNTIGLLKIETLAPMIGSCSGLGGLLVGNGPLPALWF” as the sequence, how does the “soluble on expression in E. coli” value read?
**A.** not soluble

**Q.** With “MGSDKIHHHHHHMSCKAFQGQTLREHIEAMLAAWEIVKNKYIPSIIRVMKTVGVKFTEEDADKFMKTLIILHDVGKCSEVYQKHLSNNEPLRGFRHELVSAYYAYNILKDMFKDETIAFIGALVVMMHHEPILMGQIRSLDKEELTPEVVLDKLRTFNGVMEGTESFIKSMIKEKLGVIPKVPSPTQEDVLREVIRLSVLARHRPDSGKLRMVVGALLIPLVLCDYKGAKEREGESPKFAEVLRVEMMK” as the sequence, how does the “soluble on expression in E. coli” value read?
**A.** not soluble

**Q.** For “MVKSVLCFGDSLTWGSNAETGGRHSHDDLWPSVLQKALGSDVHVIHEGLGGRTTAYDDHTGDCDRNGARLLPTLLHSHAPLDMVIIMLGTNDMKPAIHGSAIVAMKGVERLVKLTRNHVWQVSDWEAPDVLIVAPPQLCETANPFMGAIFRDAIDESAMLASVYRDLADELDCGFFDAGSVARTTPVDGVHLDAENTRAIGRGLEPVVRMMLGL”, which “soluble on expression in E. coli” value is on record?
**A.** soluble

**Q.** Which “soluble on expression in E. coli” value does the source give for “MSLLLIVAGHDPTGAGLRADIATAEALGVPAVSLPTLLSLQDEGVELVEPVDSRFMSDCLARYVPRCEVVKVGAVPTLKTFEILAKRLRDLTVVWDPVFRAEAGGELSEATPEEALETFGETVDILTPNTEELSQLVGREVRTTVEAELAARELVEEYGLTGVLVTGGHSVDRRDVWVPAEGNTIAWEVPPGEGAHGSGCVLSTALACFLVRGLDPETAVERAVRFARAAVREARNTPFGRVADPVAQIRRDATLGKATQHVIRALEIIESDPAFARAIPQVGMNVAEVFDPSRGLEGVVGLSGRIVLDGDRPTAVGRPVPGGSKHVGTVALTAHRLDPSVRAAVNARYDEELIERARDLGFVVSSFDRSEEPEEVDSTMEWGTEVAFRRADDTPDVVYDEGDVGKEPMIRVLGKSAVEAVTKLRMLLGCVVGEGHHHHHH” here?
**A.** soluble

**Q.** Which “soluble on expression in E. coli” value does the source give for “MVYNVLLSLPMMIQARWELLALLLGSGLIKQMDEVIFKEIMACASDQDLAARCSSVMLQISSNSDTCDKTAAIIFKGLTSPVAAVRSNVHRSWLCRIITLKNSQKCVETLLKLCKKSIKTTGNCSKILPISFRELPGLTCVDLQWRAILDEEPGDFSAFCYFSVLLSLKNASSQVHIQIPANDEFVLAELRNSGSLDVLKVCSKYKIYPEPLENWILEHFSPEMMEYIDFSMLKTFSAGFSQVFEEKKLEICQEKLEKFYPAEDLGRLNVHVDLSKEKLANETLEQFLQIQHESEEYPSVAGVMENLSKQNIDERLFCQKICLINDIMHEKYSILKEIRREMYTEFIFKIITRIPLRSVVDYVGATLKTEALQNPDFKNQIYQMSCQLLRLDKENARPLSLYHCFIGTCQQQDTTARISEIWAIIRGLKCDVKKRKMTEMLAKVVTSSEIQIDPSLLSDMTICSLGLHPTRFNTESTQLFVASISKLLDFRNESERIMLFQATANTPTLMDLISSILSRPSTDFSISGFQMILYFFTRFHIGSMEFYPYNHLLIITKIINFCHWSIRKFAKEPMILSISVDAICGFLPWSYLSEIALNGLEVENDPVEQLIAQNLKHNRFCVLLAEHDKQDTYLTIEDFEKLPKSEFIVEILRKKDAGNDSLNDLGQKLREITGKSMNFEEKHANLLACGILFEKSVEIMENAEKSKDLGQKWKNQYPPRGFLDNLMESFAATNSCINPEEIQNWWLEKCLGMMEIVRKKIIDFY” here?
**A.** not soluble

**Q.** With “MGSDKIHHHHHHMKRFTLWNSYVAITESKEFVDWNKTKIIGSFKCPAFSYRSSTQIKADPFLFEYNNAIYLFYEEKYKNGKGYIVCTWTSDLKNWSQPVVVLKEPFHLSFPYVFKINDKIYMLPESNESNELRLYECVDFPYKWKLNKIIFDNGKYVDSSIICKGDIYYLFTTHKTENSFYHELYYCNDLLSDKWIKHPQSPISNNPKFARNGGSVFSHNNNLFRPAQDCSVSYGNNLSIFNVTHLSIDKYEETLVATNFFPKYKFKHGGHHFSHIEYKGQNIIAFDKKSREYAITPLFSSLYALICRLMKITSHK” as the sequence, how does the “soluble on expression in E. coli” value read?
**A.** not soluble

**Q.** For “MHIQIDGIPIEILRKPIKNLNLRIYPPDGLVKVSVPLKYSEQLIKQQLQEKSKWIRAQCEQIRARSFYREPSLQTGATIPFKGKSYLLIVEEHYGPSQILIKNELIYCYTKPDLTPQQKQNILDRWYRKEMNLVIPRLIQQWEAIMKVKINQWGIKKMKTRWGSCNPRAQRIWLNLNLIKKPLECLEYVLVHEMVHILEASHNKRFYALMTQFMPKWQEYQRILEGTPNASTFARLEHHHHHH”, which “soluble on expression in E. coli” value is on record?
**A.** not soluble

**Q.** With “MFTGIVQGTAPIHSIKEKANFRTQVVKLLPEMRKDLEIGASIANNGVCLTVTEINGDLVSFDLMQETLKITNLGTVKVGDYVNIERAMQMGTEIGGHLLSGHIYCTAKISDIIASENNRQIWFELPSADVMKYILTKGFVAVDGISLTIGEVRDTQFCVNLIPETLQRTLMGRRKVGDIVNIEIDPQTQAIVDTVENYLQSKNFLEHHHHHH” as the sequence, how does the “soluble on expression in E. coli” value read?
**A.** soluble

**Q.** Which “soluble on expression in E. coli” value does the source give for “MSLSDPIKITFSVEGLSHPFLVKQKQLAEETGKRLGAQVNVISANDDVNQQFNDIQTAIAQGTDALMMMPATTQGLDAVLKQAEAAQIPYFFSQKGMLGVEPASQVLAPYSNEGQQLGEWVVEHYKGQEDVKVAIISGIPGDQSSDARVNSFLLPLLRSCNFNVVANQPGNYRRGDSEKAAQNMLAANPDIDLLFGANDEAALGGIAALKSSGRQGVDVVGLDGQTDMFAAIQSGQALATVIHKPTAGIVVEEAVDYLRGKPVPEYRVLDEDLVTKETIETGAQPAEGHHHHHH” here?
**A.** soluble

**Q.** For “MGSDKIHHHHHHMTIFERSKKGRKAFRLPESDIPEYSLPDRFLRRTPPELPEVSEPDLVRHYTNLARKNYSVDLGIYPLGSCTMKYNPKLNEKAANLEGFREIHPYQPVETVQGSLRLMYELKKMLCEITGMDDMTLQPAAGAHGELTGMLIVREYFKNRGDTGRKKVLVPDSAHGTNPASASMVGFEVVEIKSKNGMVDVEDLKKLLDEEVAAVMLTNPNTLGLFEKDILKIAEMTHECGALLYYDGANLNAIMGKVRPGDMGFDIVHLNLHKTFSTPHGMGGPGSGPVGVKKHLVDFLPFPQVKKNGELYELFVPEKTIGRVRSFFGNFPVLVKAYTYILTMGRDGLERVSEMAVLNANYLKKKIEKFLEIPYNGFCMHEFVASAEKVFRETGVRTLDIAKRILDFGVHPPTVYFPLIVPEALMIEPTETENKETLDKYAEILERVVKEAYENPDALKNAPHNTPVRRVNEVLASKKPVFRWRG”, which “soluble on expression in E. coli” value is on record?
**A.** not soluble

**Q.** With “MKILPLALFIIPFLAGCGANNTPPQTPIPGEKTSAKLRTLETGAAAIQSRPPVDAISTYLDGFHFYSGDKNGQMEAHHYVTVLNEDVMQAVIYDGNTKNARLMGVEYIISERLFKTLPPEEKKLWHSHQYEVKSGSLVAPGLPQVADKALMSKIVNTYGKTWHTWHTDRDKTLPMGIPALMMGFTGDGQLDPALLADRDRRLGIDTQAIKRERQDLPEHPVVKGANAWEQGEVIQLQRVQGSGEHGRGDTAHFGTSEQSRQ” as the sequence, how does the “soluble on expression in E. coli” value read?
**A.** not soluble
